Assay results as given in patent publication US20230263832A1, “TARGETED DRUG DELIVERY TO SITES OF INTRAVASCULAR OCCLUSION” (Children's Medical Center Corporation, priority 2020, published 2023).

System: RBC aggregates in SCD mouse liver
Experiment: TNFα-induced vaso-occlusion in SCD mouse liver (LaSC, 3 parameters)
Assay type: in vivo
Conditions: SS mice, TNFα 1 μg/mouse i.p. 1 h
Procedure: FIG. 12: Parameters of RBC aggregates were determined to quantitate vaso-occlusion in SCD mouse liver. SCD mice were injected with TNFα (1 μg/mouse; 1 h) to induce inflammatory vaso-occlusion, followed by CO2 euthanasia and PBS perfusion to flush unbound RBCs in the vasculature. The livers were harvested and fixed by PLP fixative, followed by cryosectioning and immunofluorescent staining with antibodies against Ter119 (for RBC marker), Endoglin (for sinusoidal vasculature), S100A8 (for neutrophils), and DAPI (for nuclei). Stained slides with fluorescent dye-labeled secondary antibodies were scanned on laser scan cytometry (LaSC), followed by quantitative imaging analysis (iCys software) to quantitate the # of RBC aggregates that are larger than 100 μm^2, total area of RBC aggregates, the # neutrophil-containing RBC aggregates by iCys software. Arrows indicate the neutrophil-containing RBC aggregate in liver sinusoid.
SCD SS and control AA mice were injected with or without TNFα (1 μg/mouse; 1 h) to induce inflammatory vaso-occlusion, followed by CO2 euthanasia and PBS perfusion to flush unbound RBCs in the vasculature. Immunofluorescent staining of liver cryosections was performed as described in FIG. 12 to produce LaSC images, which were subjected to quantitative imaging analysis of RBC aggregates for 3 parameters in SCD mouse livers (see FIG. 14).
From FIG. 13 LaSC scanning, cytometric events are defined by automatic image segmentation on specific channels by iCys software to quantitate # of RBC aggregate, total area of RBC aggregates, # of neutrophil-containing RBC aggregates by iCys software (Park et al. 2020). […]
(FIG. 15A) Representative images show the increased RBC aggregates upon TNFα injection in SCD mouse liver. (FIG. 15B) This was followed by quantitative imaging analysis (iCys software) to quantitate # of RBC aggregate, total area of RBC aggregates, # of neutrophil-containing RBC aggregates by iCys software. […]

TNFα
increase of # of RBC aggregates: 51%
increase of # of neutrophil-containing RBC aggregates: 182%
increase of total area of RBC aggregates: 59%
